Several values for one entry are separate records, joined by “and”; a condition that tells them apart may be missing. Equal entries are not always repeated. Where two headings read alike, the source gives them in different places.
Key:
[1] = molecular target: T1, ubiquitin (Ub), monomeric, wild type (UniProt P0CG48 1-76); experiment: NMR titration
[2] = molecular target: T1, ubiquitin (Ub), monomeric, wild type; experiment: NMR titration; remark: listed apart in the source

| Kd [1] | Kd [2] | stoichiometry N [1] | binding result [1] | Binder |
| --- | --- | --- | --- | --- |
| 150 ± 16 µM | 291 ± 13 µM | – | – | TFPEQTIKQLMDLGFPRDAVVKALKQTNGNAEFAASLLFQ (domain or fragment, S. cerevisiae, UniProt P40087 389-428, looked up) [Ddi1UBA, ubiquitin-associated (UBA) domain of Ddi1 from Saccharomyces cerevisiae, residues 389-428] |
| 45 µM and 71 µM | 175 ± 25 µM | 1 | – | Ddi1UBL, ubiquitin-like (UBL) domain of DNA-damage-inducible 1 protein (Ddi1) from Saccharomyces cerevisiae, residues 2-80 (domain or fragment, S. cerevisiae, UniProt P40087 2-80, looked up) DLTISNELTGEIYGPIEVSEDMALTDLIALLQADCGFDKTKHDLYYNMDILDSNRTQSLKELGLKTDDLLLIRGKISNS |
| – | – | – | binds | full-length (FL) Ddi1 protein from Saccharomyces cerevisiae (natural protein, S. cerevisiae, UniProt P40087 1-428, looked up) MDLTISNELTGEIYGPIEVSEDMALTDLIALLQADCGFDKTKHDLYYNMDILDSNRTQSLKELGLKTDDLLLIRGKISNSIQTDAATLSDEAFIEQFRQELLNNQMLRSQLILQIPGLNDLVNDPLLFRERLGPLILQRRYGGYNTAMNPFGIPQDEYTRLMANPDDPDNKKRIAELLDQQAIDEQLRNAIEYTPEMFTQVPMLYINIEINNYPVKAFVDTGAQTTIMSTRLAKKTGLSRMIDKRFIGEARGVGTGKIIGRIHQAQVKIETQYIPCSFTVLDTDIDVLIGLDMLKRHLACVDLKENVLRIAEVETSFLSEAEIPKSFQEGLPAPTSVTTSSDKPLTPTKTSSTLPPQPGAVPALAPRTGMGPTPTGRSTAGATTATGRTFPEQTIKQLMDLGFPRDAVVKALKQTNGNAEFAASLLFQ |
| 237 ± 52 µM | – | – | – | Ufo1UIMs, Ufo1 fragment of residues 547-668 comprising three UIM motifs (domain or fragment, UniProt Q04511 547-668, looked up) DEDEQLRRALEESQLIYETQTNSSANHGNNTNDEIDEDDEEFLRAIRQSRVEDERRRHLRNHTTGRRNGPLSDDNFATYGAAESSERTSTENTIGSSVGVDASNNVDEDLQLAIALSLSEIN |

From paper PMC4448915 (Structure (London, England : 1993), 2015)
